How the values were obtained:
purified protein [1] = substrate: Cc1cc(=O)oc2cc(O[C@H]3O[C@H](CO)[C@@H](O)[C@H](O)[C@@H]3O)ccc12; assay: purified protein; assay type: biochemical, Streptococcus pyogenes; conditions: Zn2+
purified protein [2] = substrate: OC[C@H]1O[C@H](O[C@H]2[C@H](O)[C@@H](CO)OC(O)[C@H]2O)[C@@H](O)[C@@H](O)[C@@H]1O; assay: purified protein; assay type: biochemical, Streptococcus pyogenes; conditions: Zn2+

B1: SpGH38 (Spy1604), family GH38 α-mannosidase (Streptococcus pyogenes serotype M1) (protein)
chain: MATKKVHIISHSHWDREWYMAYEQHHMRLINLIDDLLEVFQTDPDFHSFHLDGQTIILDDYLKVRPEREPEIRQAIASGKLRIGPFYILQDDFLTSSESNVRNMLIGKEDCDRWGASVPLGYFPDTFGNMGQTPQLMLKAGLQAAAFGRGIRPTGFNNQVDTSEKYSSQFSEISWQGPDNSRILGLLFANWYSNGNEIPTTEAEARLFWDKKLADAERFASTKHLLMMNGCDHQPVQLDVTKAIALANQLYPDYEFVHSCFEDYLADLADDLPENLSTVQGEITSQETDGWYTLANTASARIYLKQANTRVSRQLENITEPLAAMAYEVTSTYPHDQLRYAWKTLMQNHPHDSICGCSVDSVHREMMTRFEKAYEVGHYLAKEAAKQIADAIDTRDFPMDSQPFVLFNTSGHSKTSVAELSLTWKKYHFGQRFPKEVYQEAQEYLARLSQSFQIIDTSGQVRPEAEILGTSIAFDYDLPKRSFREPYFAIKVRLRLPITLPAMSWKTLALKLGNETTPSETVSLYDDSNQCLENGFLKVMIQTDGRLTITDKQSGLIYQDLLRFEDCGDIGNEYISRQPNHDQPFYADQGTIKLNIISNTAQVAELEIQQTFAIPISADKLLQAEMEAVIDITERQARRSQEKAELTLTTLIRMEKNNPRLQFTTRFDNQMTNHRLRVLFPTHLKTDHHLADSIFETVKRPNHPDATFWKNPSNPQHQECFVSLFDGENGVTIGNYGLNEYEILPDTNTIAITLLRSVGEMGDWGYFPTPEAQCLGKHSLSYSFESITKQTQFASYWRAQEGQVPVITTQTNQHEGTLAAEYSYLTGTNDQVALTAFKRRLADNALITRSYNLSNDKTCDFSLSLPNYNAKVTNLLEKDSKQSTPSQLGKAEILTLAWKKQ
notes: full length, residues 1-901, N-terminal His6-tag
Work on B1 yielded a Km (purified protein [1]) of 3.6 ± 1.0 mM and a Km (purified protein [2]) of 27 ± 0.75 mM.
